# B1: ESBA212 (scFv)
# scFv: ADIVLTQSPSSLSASVGDRVTLTCRASSSVNYMHWYQQRPGKPPKALIYATSNLASGVPSRFSGSGSGTEFTLTISSLQPEDVAVYYCQQWRTNPPTFGQGTKLEVKRGGGGSGGGGSGGGGSGGGGSQVQLVQSGPEVKKPGASVKVSCTASGYTFTEYTMHWVRQAPGQGLEWMGGVNPYNDNTSYIRKLQGRVTLTVDRSSSTAYMELTSLTSDDTAVYYCARYGGLRPYYFPMDFWGQGTLVTVSS
# notes: Humanized scFv with the CDRs of mouse antibody 22C4 on framework 2.3; also called scFv ESBA212; single chain antibody ESBA212
# Assays:
# Biotinylated Abeta40 = target: T1, Biotinylated Abeta40 (UniProt P05067 672-711, biotinylated (site not stated)); assay: ELISA, biotinylated Abeta40 on neutravidin plates, ESBA212 0 to 500 nM
# T1 construct: domain: Abeta40 (40 amino acid peptide); Captured on neutravidin-coated ELISA plates; also called beta-amyloid40
# Experimental: (§1) The binding properties of ESBA212 were tested in an ELISA where Abeta40 and Abeta42, respectively, were used as antigens. 96-well plates were coated with 5 μg/ml neutravidin in dilution buffer (PBS/0.01% BSA/0.2% Tween-20) and incubated overnight at 4° C. The plates were then washed 3 times with TBS/0.005% Tween-20. Biotinylated Abeta40 or Abeta42 (1 μg/ml in dilution buffer) were added to each well and the plate incubated for 15 minutes at room temperature. Plates were washed as above and non-specific binding sites were blocked by addition of dilution buffer. The plates were incubated for another 1.5 hours at room temperature while shaking. After washing the prepared ESBA212 dilutions from 0 to 500 nM were added in triplicates to the wells and incubated for 1 hour at room temperature (RT) while shaking. Plates were washed and ESBA212 was detected by a purified rabbit polyclonal anti-ESBA212 antibody (1:10000 in dilution buffer) for 1 hour at RT. After washing a horseradish peroxidase-labelled anti-rabbit IgG (1:4000 in dilution buffer) was used to detect the previously bound rabbit antibodies and […]. The reaction was stopped by addition of 1 M HCl and the absorption read at 450 nm.
# (§2) From the measured ESBA212 curve an EC50 could be calculated.
# Biotinylated Abeta42 = target: T2, Biotinylated Abeta42 (UniProt P05067 672-713, biotinylated (site not stated)); assay: ELISA, biotinylated Abeta42 on neutravidin plates, ESBA212 0 to 500 nM
# T2 construct: domain: Abeta42 (42 amino acid peptide); Captured on neutravidin-coated ELISA plates; also called beta-amyloid42
# Experimental: as §1, §2
# T1 sequence (P05067 672-711 limits assumed): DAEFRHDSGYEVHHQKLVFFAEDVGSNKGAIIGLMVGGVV
# T2 sequence (P05067 672-713 limits assumed): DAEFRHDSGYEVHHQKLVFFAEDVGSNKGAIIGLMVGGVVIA
binder,measurement,setting,value
B1,EC50,Biotinylated Abeta40,1 to 15 nM
same,EC50,Biotinylated Abeta42,1 to 15 nM

# — patent US20110020220A1 (DELENEX THERAPEUTICS, published 2011)
